Source: patent publication US20200354427A1 (Eli Lilly, published 2020)

T1: human RANKL (receptor activator of nuclear factor kappa-B ligand) (human, UniProt O14788 140-317, limits assumed)
T1 sequence (looked up): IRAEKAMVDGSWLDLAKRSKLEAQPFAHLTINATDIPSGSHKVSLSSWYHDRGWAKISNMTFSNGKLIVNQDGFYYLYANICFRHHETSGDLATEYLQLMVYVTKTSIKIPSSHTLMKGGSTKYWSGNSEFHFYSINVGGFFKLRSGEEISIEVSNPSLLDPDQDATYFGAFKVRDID


What was measured:
[1] = target: PTH receptor (PTHR1 receptor) endogenously expressed by rat osteosarcoma UMR-106 cells (rat) (UniProt P25961); test: cell-based or functional assay
PTH receptor (PTHR1 receptor) endogenously expressed by rat osteosarcoma UMR-106 cells (rat), sequence (P25961 27-591): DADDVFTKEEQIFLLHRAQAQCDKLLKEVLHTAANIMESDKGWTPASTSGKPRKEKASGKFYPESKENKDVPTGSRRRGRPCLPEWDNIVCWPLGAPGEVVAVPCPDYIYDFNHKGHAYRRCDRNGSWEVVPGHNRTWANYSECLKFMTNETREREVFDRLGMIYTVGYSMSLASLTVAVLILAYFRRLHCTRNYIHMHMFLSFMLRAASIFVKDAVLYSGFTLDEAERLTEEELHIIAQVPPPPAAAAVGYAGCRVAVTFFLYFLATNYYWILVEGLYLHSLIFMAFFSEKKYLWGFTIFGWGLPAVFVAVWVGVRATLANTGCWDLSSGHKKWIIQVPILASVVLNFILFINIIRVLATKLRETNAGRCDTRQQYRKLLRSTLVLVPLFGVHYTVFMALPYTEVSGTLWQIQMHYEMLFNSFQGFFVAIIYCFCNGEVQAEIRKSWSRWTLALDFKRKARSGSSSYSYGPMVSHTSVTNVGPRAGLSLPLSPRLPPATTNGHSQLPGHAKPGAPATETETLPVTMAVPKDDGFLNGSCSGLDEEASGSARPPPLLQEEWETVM

[2] = target: T1, human RANKL (receptor activator of …); test: cell-based or functional assay

EC50 (nM); PTHR1 activation, CRE-regulated luciferase luminescence in UMR-106 cells [1] | IC50 (nM) hRANKL; neutralization of RANKL-induced NF-kB driven luciferase luminescence [2] | Molecule
5.6 nM | – | PTH peptide (a 38 amino acid parathyroid hormone peptide)
– | 0.069 nM | RANKL neutralizing antibody (an IgG4 RANKL mAb having the same HC and LC amino acid sequences as the mAb portion of the exemplified fusion compound) (antibody, V domains shown) VH: QVQLVQSGAEVKKPGSSVKVSCKASGYAFTNYYIEWVRQAPGQGLEWMGVINPGWGDTNYNEKFKGRVTITADKSTSTAYMELSSLRSEDTAVYYCARRDTAHGYYALDPWGQGTTVTVSS VL: DIQMTQSPSSLSASVGDRVTITCKASQNVGTNVAWYQQKPGKAPKLLIYSASYRYSGVPSRFSGSGSGTDFTLTISSLQPEDFATYYCQQYWDYPLTFGGGTKVEIKR
